Data published in US20260167721A1 (ABLEXIS, published 2026).

How the values were obtained:
[1] = target: T1, recombinant human CD3 epsilon/delta heterodimer (human, UniProt P07766 23-126; P04234 22-105); assay: Octet BLI, mAb on FAB2G sensor, hCD3 E/D 200-50 nM; R^2 0.98;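 also: antibodies purified from hybridoma supernatants, measured by Octet binding to recombinant human CD3 protein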
T1 construct: Recombinant protein in solution (200-50 nM) in the Octet assay; also called hCD3 E/D; human CD3E/D
T1 sequence (P07766 23-126, stated change not applied, chain 1 of 2): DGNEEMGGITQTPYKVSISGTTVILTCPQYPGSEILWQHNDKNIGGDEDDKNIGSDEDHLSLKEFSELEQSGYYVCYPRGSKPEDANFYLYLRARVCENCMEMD
T1 sequence (P04234 22-105, stated change not applied, chain 2 of 2): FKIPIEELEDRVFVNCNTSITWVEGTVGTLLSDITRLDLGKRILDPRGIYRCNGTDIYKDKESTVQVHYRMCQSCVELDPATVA
Method: Samples were evaluated by flow cytometry analysis against Jurkat and human Pan-T cells (FIG. 1B) as well as by Octet against recombinant human CD3 proteins to evaluate apparent affinities and binding off-rates (Table 6, infra).

[2] = target: T2, recombinant human CD3 epsilon/gamma heterodimer (human, UniProt P07766 23-126; P09693 23-116); assay: Octet BLI, mAb on FAB2G sensor, hCD3 E/G 200-50 nM; R^2 0.90
T2 construct: Recombinant protein in solution (200-50 nM) in the Octet assay; also called hCD3 E/G
T2 sequence (P07766 23-126, chain 1 of 2): as the sequence (P07766 23-126, stated change not applied, chain 1 of 2) above
T2 sequence (P09693 23-116, chain 2 of 2): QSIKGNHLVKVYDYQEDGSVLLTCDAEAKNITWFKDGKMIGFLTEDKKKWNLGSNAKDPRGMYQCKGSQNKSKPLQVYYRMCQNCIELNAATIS

- Kd [1]: 356 nM
- Response [1]: 0.03
- koff [1]: 0.000184 s⁻¹
- kon [1]: 517 M⁻¹ s⁻¹
- Kd [2]: < 0.001 nM
B1: ABL-CD3-44 (antibody, V domains shown)
VH: EVQLVESGGGLVQPGGSLRLSCAASGFTFSTYWMSWVRQAPGKGLEWVANIKQDGSEKYYVDSVKGRFTISRDNAKNSLYLQMNSLRAEDTAVYYCATGSFDYWGQGTLVTVSS
VL: QPVLTQPSSHSASSGASVRLTCMLSSGFSVGDFWIRWYQQKPGNPPRYLLFYHSDSNKGQGSGVPSRFSGSNDASANAGILRISGLQPEDEADYYCGTWHSNSKTWVFGGGTKLTVL
notes: Chimeric hybridoma mAb: human V, CH1, upper hinge; mouse middle hinge, CH2, CH3
